Read-outs that look alike come from different tables or passages of the source.
Columns and labels:
Conditions in all cases: remark: other sources report otherwise
[1] = target: SARS-COV2-S1 RBD (mouse IgG2Fc tag) (SARS-CoV-2), P0DTC2; experiment: FACS, S1 RBD-mFc on Vero E6 (ACE2)
[2] = target: SARS-COV2-S1 RBD (mouse IgG2Fc tag) (SARS-CoV-2), P0DTC2; experiment: FACS, blocks S1 RBD-mFc binding to ACE2 on Vero E6
[3] = target: SARS-COV2-S1 RBD (mouse IgG2Fc tag) (SARS-CoV-2), P0DTC2; experiment: column not explained; likely FACS, S1 RBD on Vero E6
[4] = target: SARS-COV2-S1 RBD (mouse IgG2Fc tag) (SARS-CoV-2), P0DTC2
[5] = target: T1, CV S-protein construct 6 trimer TP31001F (SARS-CoV-2), P0DTC2; experiment: SPR
[6] = target: SARS-COV2-S1 RBD (mouse IgG2Fc tag) (SARS-CoV-2), P0DTC2; remark: listed apart in the source
[7] = target: T1, CV S-protein construct 6 trimer …; experiment: SPR; remark: listed apart in the source

Binder	Competition Factor [1]	IC50 [2] [nM]	MFI Fold Decrease [3] [fold]	IC50 [4] [nM]	Kd [5] [nM]	IC50 [6] [nM]	Kd [7] [nM]
variant 6-3 (Fc fusion) VHH: EVQLVESGGGLVQPGGSLRLSCAASGFTFSPSWMGWFRQAPGKEREFVATINEYGGRNYADSVKGRFTISADNSKNTAYLQMNSLKPEDTAVYYCARVDRDFDYWGQGTLVTVSS	9.51	0.74	9.51				
variant 5-50 (Fc fusion) VHH: EVQLVESGGGLVQPGGSLRLSCAASGFSLDYYGMGWFRQAPGKEREFVAAITSGGTPHYADSVKGRFTISADNSKNTAYLQMNSLKPEDTAVYYCASAYNPGIGYDWGQGTLVTVSS				1.61	3.8		
variant 6-81 (Fc fusion) VHH: EVQLVESGGGLVQPGGSLRLSCAASGFIGNYHAMGWFRQAPGKEREFVAAVTWSGGTTNYADSVKGRFTISADNSKNTAYLQMNSLKPEDTAVYYCAREGYYYDSSGYPYYFDYWGQGTLVTVSS					3.9	1.38	3.9

— US20210355194A1
